Experimental data from patent publication US12559749B2, “Methods of rescuing stop codons via genetic reassignment with ACE-tRNA” (UNIVERSITY OF IOWA RESEARCH FOUNDATION, priority 2017, dated 2026).

Tested on: CFTR W1282X
Experiment: CFTR W1282X rescue, western blot of B and C bands, HEK cells
Type: cell-based, human
Settings: co-expression with CFTR W1282X cDNA in HEK cells
Method: To assess is these novel tRNA could rescue CFTR channels harboring nonsense codons, they were co-expressed in mammalian HEK cells with a CFTR W1282X cDNA plasmid. The cellular preparations were analyzed by standard biochemical approaches via Western blot assessment of CFTR protein. […] Specifically, the “B” and “C” bands represent the full-length and fully mature, post-translationally proceeded CFTR protein at the cell surface, respectively. […] FIG. 9.
For expression in mammalian cells, the cDNA for the coding region and 200 base-pair of the 3′ untranslated region (UTR) of human CFTR was ligated into pcDNA3.1(+) (Promega, USA) using the KpnI and XbaI restriction enzymes. The G542tga and W1282tga mutations were introduced using QuickChange XL II (Stratagene, USA). For expression in Xenopus laevis oocytes, the cDNA for the coding region and 140 base-pair of the 5′ and 244 base-pair 3′ UTR of human CFTR was ligated into pGEM-HE (Promega, USA). Bothe the G542tga and W1282tga mutations were introduced using QuickChange XL II. The cDNA encoding the E. coli histidinol dehydrogenase was codon optimized for Mus musculus and synthesized (BioBasic Inc, Canada) with a c-terminal 8×His-Strep-tag (“8×His” disclosed as SEQ ID NO: 647) for protein purification from mammalian cells. The synthesized cDNA was ligated into pcDNA3.1(+) using EcoRI and XhoI restriction sites. […]

B1: Glychr19.trna2: top performing glycine ACE-tRNA UGA, SEQ ID NO: 53 (nucleic acid)
chain: GCGUUGGUGGUAUAGUGGUUAGCAUAGCUGCCUUCAAAGCAGUUGACCCGGGUUCGAUUCCCGGCCAACGCA
modifications: chemistry not given here
rescue of CFTR protein, B and C bands: robust populations of ‘B’ and ‘C’ CFTR immunopositive
